Test results reported in paper PMC9385479, “GTSF1 accelerates target RNA cleavage by PIWI-clade Argonaute proteins” (Nature, 2022).

T1: MIWI (PIWIL1), mouse, 3×Flag–SNAP-tagged recombinant, loaded with a synthetic piRNA (MIWI piRISC) (mouse, UniProt Q9JMB7 1-862, methylarginines (positions in Extended Data Fig. 1h))
T1 construct: Mouse MIWI (PIWIL1); cDNA from the Mammalian Gene Collection; not shown: 3×Flag, N-terminal, kept; SNAP, N-terminal, kept
T1 sequence (looked up): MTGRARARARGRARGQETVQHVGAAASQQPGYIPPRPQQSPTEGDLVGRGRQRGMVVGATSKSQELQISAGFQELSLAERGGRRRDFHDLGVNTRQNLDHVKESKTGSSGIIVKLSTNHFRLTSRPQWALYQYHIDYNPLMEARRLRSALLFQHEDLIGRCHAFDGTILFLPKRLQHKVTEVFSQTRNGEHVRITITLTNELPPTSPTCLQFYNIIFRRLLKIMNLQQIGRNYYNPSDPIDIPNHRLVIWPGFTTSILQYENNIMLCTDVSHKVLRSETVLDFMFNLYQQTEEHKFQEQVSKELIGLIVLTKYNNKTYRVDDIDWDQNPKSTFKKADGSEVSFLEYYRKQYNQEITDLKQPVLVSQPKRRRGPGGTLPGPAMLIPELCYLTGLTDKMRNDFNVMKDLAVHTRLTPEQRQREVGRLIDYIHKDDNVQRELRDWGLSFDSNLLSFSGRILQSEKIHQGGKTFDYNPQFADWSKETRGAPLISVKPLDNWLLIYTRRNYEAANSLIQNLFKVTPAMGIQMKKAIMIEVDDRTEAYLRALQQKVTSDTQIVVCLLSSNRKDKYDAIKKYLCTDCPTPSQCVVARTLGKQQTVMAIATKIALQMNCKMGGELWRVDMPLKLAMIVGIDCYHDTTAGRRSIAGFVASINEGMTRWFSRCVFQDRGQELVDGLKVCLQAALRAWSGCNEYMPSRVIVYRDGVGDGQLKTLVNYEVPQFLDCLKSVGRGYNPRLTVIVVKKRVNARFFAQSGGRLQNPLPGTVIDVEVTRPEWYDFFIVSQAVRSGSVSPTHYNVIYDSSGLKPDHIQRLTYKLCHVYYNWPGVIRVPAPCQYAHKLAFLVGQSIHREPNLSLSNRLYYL


Legend:
[1] = molecular target: MIWI (PIWIL1), mouse, 3×Flag–SNAP-tagged recombinant, loaded with a synthetic piRNA (MIWI piRISC) (mouse) (UniProt Q9JMB7)
[2] = molecular target: T1, MIWI (PIWIL1), mouse, …; test: enzyme kinetics titration (pre-steady-state target-cleavage rate k_burst against GTSF1 concentration); k_burst of MIWI piRISC measured at 1–5,000 nM GTSF1 and fit to kburst=kpot[GTSF1]/(Kd+[GTSF1]); Kd is for the MIWI piRISC–target RNA ternary complex; conditions: both partners purified

Molecule | amount of target RNA cleaved by MIWI piRISC with 100 nM recombinant GTSF protein (fold increase) [1] [fold] | Kd [2] [nM]
BmGtsf1-like, Bombyx mori, V5SBP-tagged purified recombinant (natural protein) | 2.6 | –
Gametocyte specific factor 1 (GTSF1), mouse, wild type, purified recombinant (natural protein, UniProt Q9DAN6 1-167, looked up, Mouse GTSF1, tandem CHHC-type zinc-finger protein, printed mass 19,083 Da; cDNA synthesized at Twist Biosciences; Grown with 1 uM ZnSO4 (zinc-finger protein); also called wild-type GTSF1; MmGtsf1; source: E. coli Rosetta-Gami 2 (pCold-GST), purified (glutathione Sepharose, HRV3C cleavage, HiTrap Q)) MEDTYIDSLDPEKLLQCPYDKNHQIRACRFPYHLIKCRKNHPDVANKLATCPFNARHQVPRAEISHHISSCDDKSCIEQDVVNQTRNLGQETLAESTWQCPPCDEDWDKDLWEQTSTPFVWGTASFCGNNSPANNIVMEHKSNLASGMRVPKSLPYVLPWKNNGNAQ | – | 8
GTSF1(W98A/W107A/W112A), mouse, PIWI-interacting mutant, purified recombinant (natural protein, UniProt Q9DAN6 1-167, looked up, Mouse GTSF1 with W98A, W107A and W112A; expression vector synthesized at Twist Biosciences; also called PIWI-int mutant GTSF1; source: E. coli Rosetta-Gami 2 (pCold-GST), purified (glutathione Sepharose, HRV3C cleavage, HiTrap Q)) MEDTYIDSLDPEKLLQCPYDKNHQIRACRFPYHLIKCRKNHPDVANKLATCPFNARHQVPRAEISHHISSCDDKSCIEQDVVNQTRNLGQETLAESTAQCPPCDEDADKDLAEQTSTPFVWGTASFCGNNSPANNIVMEHKSNLASGMRVPKSLPYVLPWKNNGNAQ | – | 500
